In patent US20050147555A1:
Positions of bridges follow the written chain, without caps; N, C: chain ends. Groups on a side chain read outwards from the residue. *: point of attachment. Biotin = O=C1N[C@H]2[C@H](CS[C@H]2CCCCC(=O)*)N1; AEEA = NCCOCCOCC(=O)O

Target: KDR (VEGFR-2, Flk-1), full-length receptor on cells (human), P35968
Experiment: competition with 125I-VEGF on KDR-transfected 293H cells
Details: remark: other sources report otherwise

Chain of KDR (VEGFR-2, Flk-1), full-length receptor on cells (human), P35968 (P35968 20-1356): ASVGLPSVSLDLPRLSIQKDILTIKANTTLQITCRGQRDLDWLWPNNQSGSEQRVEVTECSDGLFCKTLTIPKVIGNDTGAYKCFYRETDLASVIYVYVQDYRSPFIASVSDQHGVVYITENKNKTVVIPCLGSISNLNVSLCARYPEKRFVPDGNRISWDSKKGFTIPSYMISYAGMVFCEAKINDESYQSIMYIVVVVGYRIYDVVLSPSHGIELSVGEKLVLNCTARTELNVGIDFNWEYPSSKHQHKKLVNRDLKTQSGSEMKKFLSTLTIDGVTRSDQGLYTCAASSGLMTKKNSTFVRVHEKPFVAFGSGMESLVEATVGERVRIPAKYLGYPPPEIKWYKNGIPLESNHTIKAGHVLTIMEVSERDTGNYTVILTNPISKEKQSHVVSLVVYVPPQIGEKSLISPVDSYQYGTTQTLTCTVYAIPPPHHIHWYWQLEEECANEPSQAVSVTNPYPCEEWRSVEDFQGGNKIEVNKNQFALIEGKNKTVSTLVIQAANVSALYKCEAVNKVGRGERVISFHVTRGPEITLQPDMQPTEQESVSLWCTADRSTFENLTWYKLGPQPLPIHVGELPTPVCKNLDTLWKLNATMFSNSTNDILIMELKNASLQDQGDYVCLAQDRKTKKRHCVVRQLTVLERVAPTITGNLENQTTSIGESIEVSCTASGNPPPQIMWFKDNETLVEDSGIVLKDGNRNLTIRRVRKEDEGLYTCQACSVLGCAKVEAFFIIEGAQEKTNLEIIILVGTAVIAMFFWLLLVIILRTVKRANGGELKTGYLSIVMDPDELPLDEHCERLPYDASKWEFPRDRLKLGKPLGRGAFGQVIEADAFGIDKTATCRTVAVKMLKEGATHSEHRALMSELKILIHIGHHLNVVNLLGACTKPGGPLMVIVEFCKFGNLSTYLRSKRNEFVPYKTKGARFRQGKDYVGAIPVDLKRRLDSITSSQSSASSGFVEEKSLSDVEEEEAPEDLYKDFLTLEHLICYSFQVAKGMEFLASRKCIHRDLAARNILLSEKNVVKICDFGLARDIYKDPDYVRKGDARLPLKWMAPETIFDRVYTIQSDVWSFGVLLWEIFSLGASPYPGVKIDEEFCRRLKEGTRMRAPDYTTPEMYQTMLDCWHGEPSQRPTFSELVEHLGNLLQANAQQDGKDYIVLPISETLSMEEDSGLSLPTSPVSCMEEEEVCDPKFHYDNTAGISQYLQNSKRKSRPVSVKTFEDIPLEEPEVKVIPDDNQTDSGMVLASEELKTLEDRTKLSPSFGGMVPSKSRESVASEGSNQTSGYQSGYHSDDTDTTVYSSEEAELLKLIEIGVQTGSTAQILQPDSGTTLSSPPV

B1: P5-XB (peptide)
peptide: Ac-AGPKWCEEDWYYCMITGTGGGK([AEEA-AEEA-Biotin])-NH2
modifications: disulfide 6-13
SMILES: CC[C@H](C)[C@H](NC(=O)[C@H](CCSC)NC(=O)[C@@H]1CSSC[C@H](NC(=O)[C@H](Cc2c[nH]c3ccccc23)NC(=O)[C@H](CCCCN)NC(=O)[C@@H]2CCCN2C(=O)CNC(=O)[C@H](C)NC(C)=O)C(=O)N[C@@H](CCC(=O)O)C(=O)N[C@@H](CCC(=O)O)C(=O)N[C@@H](CC(=O)O)C(=O)N[C@@H](Cc2c[nH]c3ccccc23)C(=O)N[C@@H](Cc2ccc(O)cc2)C(=O)N[C@@H](Cc2ccc(O)cc2)C(=O)N1)C(=O)N[C@H](C(=O)NCC(=O)N[C@H](C(=O)NCC(=O)NCC(=O)NCC(=O)N[C@@H](CCCCNC(=O)COCCOCCNC(=O)COCCOCCNC(=O)CCCC[C@@H]1SC[C@@H]2NC(=O)N[C@@H]21)C(N)=O)[C@@H](C)O)[C@@H](C)O
% inhibition of 125I-VEGF binding at 0.3 µM: 24.4%
% inhibition of 125I-VEGF binding at 30 µM: 48%
